Target: 6His-CpsR (Streptococcus pneumoniae D39, UniProt A0A0H2ZMA3 1-247)
Assay: EMSA; 0.25 uM probe; EMSA: 20 ul, LightShift kit buffer (composition not given) with 50 ng/ul poly(dI-dC), 20 min room temperature, 6% gel; footprinting: 400 ng probe in 40 ul, 30 min at 25 C
Conditions: protein: recombinant; tags: 6His; chain copies: 2; label: 5'-biotin (top strand); blunt

B1: WT 33-mer (dsDNA)
DNA 1: TGTCATGTTCTTATTTCATTTTACTATATTTTT
DNA 2: AAAAATATAGTAAAATGAAATAAGAACATGACA
B1: binds.

— publication PMC4937376, “CpsR, a GntR family regulator, transcriptionally regulates capsular polysaccharide biosynthesis and governs bacterial virulence in Streptococcus pneumoniae”
